The results in this text go back to patent US20170363644A1 (ROCKEFELLER UNIVERSITY, published 2017).

Where no end group is shown, it is not given here.

The target in this experiment is T1, factor XII (FXII) (human, UniProt P00748 20-615).
T1 construct: Endogenous FXII in human plasma in the pulldown; purified FXII in the chromogenic assay; also called FXII zymogen
T1 sequence (looked up): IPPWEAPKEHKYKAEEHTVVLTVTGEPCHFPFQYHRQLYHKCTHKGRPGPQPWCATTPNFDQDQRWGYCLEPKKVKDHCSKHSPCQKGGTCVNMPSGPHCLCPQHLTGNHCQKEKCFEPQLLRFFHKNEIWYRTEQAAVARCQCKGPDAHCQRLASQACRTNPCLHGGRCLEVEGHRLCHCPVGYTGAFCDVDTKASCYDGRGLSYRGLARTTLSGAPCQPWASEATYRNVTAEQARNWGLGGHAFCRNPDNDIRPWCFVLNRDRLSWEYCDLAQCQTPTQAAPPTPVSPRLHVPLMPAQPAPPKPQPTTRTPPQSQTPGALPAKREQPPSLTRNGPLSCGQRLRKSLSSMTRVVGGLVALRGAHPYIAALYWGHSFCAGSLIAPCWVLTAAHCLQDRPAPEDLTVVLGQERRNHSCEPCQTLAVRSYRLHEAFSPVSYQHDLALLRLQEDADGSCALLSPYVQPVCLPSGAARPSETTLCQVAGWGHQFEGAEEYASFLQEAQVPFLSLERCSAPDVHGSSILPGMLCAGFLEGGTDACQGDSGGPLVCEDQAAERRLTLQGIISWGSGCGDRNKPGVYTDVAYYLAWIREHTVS
Nature of the experiment: streptavidin bead pulldown from human plasma, Western blot for FXII.

B1: biotinylated amylin (peptide, UniProt P10997 34-70, looked up)
peptide: KCNTATCATQRLANFLVHSSNNFGAILSSTNVGSNTY
modifications: ends and bridges not checked; also: biotinylated (site not given here)
notes: Control aggregating peptide in the pulldown
For the molecule B1, the binding result is “no binding (tested: 500 Nm)”.
